The supplement of paper PMC10724198
± gives the standard deviation of the averaged measurements.

What was measured:
[1] = system: Saccharomyces cerevisiae; assay: protein stability index of tFT-peptide fusion (C-terminal peptide) (PSI (0-1 scale)); higher = more stable (slower turnover); conditions: genetic background: wild type; temperature: 30 C
[2] = system: Saccharomyces cerevisiae; assay: as above
Experimental: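 MPS profiling in S. cerevisiae of the tFT-X12 degron library: putative degron peptides plus stable controls, 12 aa, fused to the C-terminus of a sfGFP-mCherry timer. Cells are FACS-sorted into 8 mCherry/sfGFP bins and deep-sequenced. PSI runs from 0 (unstable) to 1 (stable). Backgrounds are wild type, das1Δ and doa10Δ at 30 °C, and wild type, das1Δ, cdc34-1 and cdc53-1 at 37 °C; 2-3 technical replicates each.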

[3] = genetic background: cdc34-1, temperature: 37 C
[4] = genetic background: cdc53-1, temperature: 37 C
[5] = genetic background: das1 deletion, temperature: 30 C
[6] = genetic background: das1 deletion, temperature: 37 C
[7] = genetic background: doa10 deletion, temperature: 30 C
[8] = genetic background: wild type, temperature: 30 C
[9] = genetic background: wild type, temperature: 37 C
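Also: PSI is a weighted mean of sequencing reads over stability bins, variants kept only with over 10 reads, mCherry proximal and sfGFP distal, peptide attached via GGGS linker.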

## GRGFVLSVAVVA
[1]
  protein stability index: 0.435 ± 0.012
[2]; [3]
  protein stability index: 0.404 ± 0.011
[2]; [4]
  protein stability index: 0.453 ± 0.031
[2]; [5]
  protein stability index: 0.395 ± 0.034
[2]; [6]
  protein stability index: 0.502 ± 0.0094
[2]; [7]
  protein stability index: 0.363 ± 0.0089
[2]; [8]
  protein stability index: 0.395 ± 0.021
[2]; [9]
  protein stability index: 0.467 ± 0.0049

## GRVCWVVLAGLV
[1]
  protein stability index: 0.429 ± 0.0095
[2]; [3]
  protein stability index: 0.593 ± 0.04
[2]; [4]
  protein stability index: 0.591 ± 0.053
[2]; [5]
  protein stability index: 0.441 ± 0.026
[2]; [6]
  protein stability index: 0.6202 ± 0.0013
[2]; [7]
  protein stability index: 0.307 ± 0.01
[2]; [8]
  protein stability index: 0.341 ± 0.026
[2]; [9]
  protein stability index: 0.5394 ± 0.0042

## GTVRSLLKWRCS
[1]
  protein stability index: 0.3259 ± 0.00055
[2]; [3]
  protein stability index: 0.654 ± 0.051
[2]; [4]
  protein stability index: 0.732 ± 0.0075
[2]; [5]
  protein stability index: 0.651 ± 0.027
[2]; [6]
  protein stability index: 0.7431 ± 0.0073
[2]; [7]
  protein stability index: 0.148 ± 0.016
[2]; [8]
  protein stability index: 0.192 ± 0.02
[2]; [9]
  protein stability index: 0.384 ± 0.011

## GVCLGFICVGFC
[1]
  protein stability index: 0.444 ± 0.018
[2]; [3]
  protein stability index: 0.494 ± 0.028
[2]; [4]
  protein stability index: 0.55 ± 0.0067
[2]; [5]
  protein stability index: 0.359 ± 0.031
[2]; [6]
  protein stability index: 0.576 ± 0.032
[2]; [7]
  protein stability index: 0.343 ± 0.029
[2]; [8]
  protein stability index: 0.362 ± 0.026
[2]; [9]
  protein stability index: 0.522 ± 0.0075

## GVCWCVLFVVGC
[1]
  protein stability index: 0.359 ± 0.013
[2]; [3]
  protein stability index: 0.312 ± 0.012
[2]; [4]
  protein stability index: 0.417 ± 0.059
[2]; [5]
  protein stability index: 0.271 ± 0.027
[2]; [6]
  protein stability index: 0.484 ± 0.006
[2]; [7]
  protein stability index: 0.226 ± 0.012
[2]; [8]
  protein stability index: 0.259 ± 0.02
[2]; [9]
  protein stability index: 0.428 ± 0.052

## GVYFIGISRCVC
[1]
  protein stability index: 0.307 ± 0.0065
[2]; [3]
  protein stability index: 0.559 ± 0.006
[2]; [4]
  protein stability index: 0.642 ± 0.037
[2]; [5]
  protein stability index: 0.529 ± 0.029
[2]; [6]
  protein stability index: 0.669 ± 0.0011
[2]; [7]
  protein stability index: 0.175 ± 0.018
[2]; [8]
  protein stability index: 0.208 ± 0.025
[2]; [9]
  protein stability index: 0.36 ± 0.015

## GVYRLCLLLLVY
[1]
  protein stability index: 0.218 ± 0.034
[2]; [3]
  protein stability index: 0.0836 ± 0.015
[2]; [4]
  protein stability index: 0.107 ± 0.03
[2]; [5]
  protein stability index: 0.183 ± 0.014
[2]; [6]
  protein stability index: 0.239 ± 0.021
[2]; [7]
  protein stability index: 0.158 ± 0.0074
[2]; [8]
  protein stability index: 0.156 ± 0.026
[2]; [9]
  protein stability index: 0.237 ± 0.015

## GWRGVVLVFVLV
[1]
  protein stability index: 0.36784 ± 0.00027
[2]; [3]
  protein stability index: 0.302 ± 0.0049
[2]; [4]
  protein stability index: 0.46 ± 0.059
[2]; [5]
  protein stability index: 0.28 ± 0.027
[2]; [6]
  protein stability index: 0.47443 ± 1.3e-05
[2]; [7]
  protein stability index: 0.251 ± 0.012
[2]; [8]
  protein stability index: 0.269 ± 0.027
[2]; [9]
  protein stability index: 0.438 ± 0.015

## GWSRRFFCLFIV
[1]
  protein stability index: 0.137 ± 0.002
[2]; [3]
  protein stability index: 0.203 ± 0.052
[2]; [4]
  protein stability index: 0.303 ± 0.0019
[2]; [5]
  protein stability index: 0.345 ± 0.041
[2]; [6]
  protein stability index: 0.4984 ± 0.0011
[2]; [7]
  protein stability index: 0.0815 ± 0.015
[2]; [8]
  protein stability index: 0.0745 ± 0.024
[2]; [9]
  protein stability index: 0.0793 ± 0.006

## GWWCGIGVAVSV
[1]
  protein stability index: 0.464 ± 0.015
[2]; [3]
  protein stability index: 0.432 ± 0.039
[2]; [4]
  protein stability index: 0.461 ± 0.039
[2]; [5]
  protein stability index: 0.337 ± 0.03
[2]; [6]
  protein stability index: 0.5114 ± 0.0051
[2]; [7]
  protein stability index: 0.292 ± 0.0069
[2]; [8]
  protein stability index: 0.339 ± 0.027
[2]; [9]
  protein stability index: 0.477 ± 0.01

## HHACLLPVRKAG
[1]
  protein stability index: 0.277 ± 0.027
[2]; [3]
  protein stability index: 0.636 ± 0.056
[2]; [4]
  protein stability index: 0.752 ± 0.012
[2]; [5]
  protein stability index: 0.6526 ± 0.00091
[2]; [6]
  protein stability index: 0.744 ± 0.0085
[2]; [7]
  protein stability index: 0.154 ± 0.007
[2]; [8]
  protein stability index: 0.187 ± 0.0086
[2]; [9]
  protein stability index: 0.404 ± 0.024

## HLAQYSSSLHLM
[1]
  protein stability index: 0.554 ± 0.085
[2]; [3]
  protein stability index: 0.657 ± 0.098
[2]; [4]
  protein stability index: 0.719 ± 0.011
[2]; [5]
  protein stability index: 0.653 ± 0.0071
[2]; [6]
  protein stability index: 0.731 ± 0.027
[2]; [7]
  protein stability index: 0.375 ± 0.022
[2]; [8]
  protein stability index: 0.424 ± 0.014
[2]; [9]
  protein stability index: 0.6165 ± 0.0024

## HPPPPPPPPSLS
[1]
  protein stability index: 0.513 ± 0.062
[2]; [3]
  protein stability index: 0.673 ± 0.038
[2]; [4]
  protein stability index: 0.715 ± 0.0098
[2]; [5]
  protein stability index: 0.666 ± 0.028
[2]; [6]
  protein stability index: 0.7362 ± 0.0017
[2]; [7]
  protein stability index: 0.677 ± 0.029
[2]; [8]
  protein stability index: 0.67 ± 0.013
[2]; [9]
  protein stability index: 0.7037 ± 0.002

## IACVLSIFLNAA
[1]
  protein stability index: 0.44 ± 0.054
[2]; [3]
  protein stability index: 0.325 ± 0.0071
[2]; [4]
  protein stability index: 0.435 ± 0.051
[2]; [5]
  protein stability index: 0.292 ± 0.039
[2]; [6]
  protein stability index: 0.435 ± 0.0047
[2]; [7]
  protein stability index: 0.2559 ± 0.0013
[2]; [8]
  protein stability index: 0.274 ± 0.031
[2]; [9]
  protein stability index: 0.436 ± 0.0094

## ICQFFFFALLSF
[1]
  protein stability index: 0.178 ± 0.013
[2]; [3]
  protein stability index: 0.109 ± 0.04
[2]; [4]
  protein stability index: 0.0674 ± 0.0054
[2]; [5]
  protein stability index: 0.164 ± 0.016
[2]; [6]
  protein stability index: 0.244 ± 0.021
[2]; [7]
  protein stability index: 0.238 ± 0.011
[2]; [8]
  protein stability index: 0.128 ± 0.018
[2]; [9]
  protein stability index: 0.19 ± 0.0063

## IDSEVHLWKRSA
[1]
  protein stability index: 0.336 ± 0.058
[2]; [3]
  protein stability index: 0.618 ± 0.046
[2]; [4]
  protein stability index: 0.725 ± 0.012
[2]; [5]
  protein stability index: 0.642 ± 0.017
[2]; [6]
  protein stability index: 0.719 ± 0.037
[2]; [7]
  protein stability index: 0.16 ± 0.016
[2]; [8]
  protein stability index: 0.176 ± 0.027
[2]; [9]
  protein stability index: 0.405 ± 0.011

## IFAVLVSGSFFF
[1]
  protein stability index: 0.4288 ± 0.00067
[2]; [3]
  protein stability index: 0.425 ± 0.018
[2]; [4]
  protein stability index: 0.541 ± 0.014
[2]; [5]
  protein stability index: 0.324 ± 0.051
[2]; [6]
  protein stability index: 0.545 ± 0.017
[2]; [7]
  protein stability index: 0.318 ± 0.0053
[2]; [8]
  protein stability index: 0.336 ± 0.041
[2]; [9]
  protein stability index: 0.509 ± 0.017

## IFLGFGPLFGRL
[1]
  protein stability index: 0.777 ± 0.034
[2]; [3]
  protein stability index: 0.862 ± 0.044
[2]; [4]
  protein stability index: 0.878 ± 0.011
[2]; [5]
  protein stability index: 0.727 ± 0.03
[2]; [6]
  protein stability index: 0.817 ± 0.034
[2]; [7]
  protein stability index: 0.726 ± 0.037
[2]; [8]
  protein stability index: 0.73 ± 0.0083
[2]; [9]
  protein stability index: 0.824 ± 0.03

## IGSFFLFFLLIF
[1]
  protein stability index: 0.384 ± 0.02
[2]; [3]
  protein stability index: 0.281 ± 0.025
[2]; [4]
  protein stability index: 0.291 ± 0.029
[2]; [5]
  protein stability index: 0.3 ± 0.025
[2]; [6]
  protein stability index: 0.383 ± 0.0054
[2]; [7]
  protein stability index: 0.354 ± 0.027
[2]; [8]
  protein stability index: 0.245 ± 0.045
[2]; [9]
  protein stability index: 0.3726 ± 0.0017

## IIIGTLLYVNVR
[1]
  protein stability index: 0.29 ± 0.022
[2]; [3]
  protein stability index: 0.279 ± 0.0059
[2]; [4]
  protein stability index: 0.323 ± 0.033
[2]; [5]
  protein stability index: 0.243 ± 0.03
[2]; [6]
  protein stability index: 0.403 ± 0.012
[2]; [7]
  protein stability index: 0.188 ± 0.018
[2]; [8]
  protein stability index: 0.215 ± 0.029
[2]; [9]
  protein stability index: 0.39 ± 0.041
